This note sets out measurements from patent US20240082414A1, “HUMAN TUMOR NECROSIS FACTOR ALPHA ANTIBODY GLUCOCORTICOID CONJUGATES” (Eli Lilly and Company, priority 2022, published 2024).

Assay [1] concerns the target human FcγRI (CD64) extracellular domain (human) (UniProt P12314). Kind of assay: SPR (Biacore), antibody captured on Protein A, FcγR ECD as analyte, 25° C.
Assay [2] concerns the target human FcγRIIA_131H (CD32a) extracellular domain (human) (UniProt P12318). Kind of assay: SPR (Biacore), antibody captured on Protein A, FcγR ECD as analyte, steady state, 25° C.
Assay [3] deals with human FcγRIIA_131R (CD32a) extracellular domain (human) (UniProt P12318). Described as above.
Sequence of human FcγRIIA_131R (CD32a) extracellular domain (human) (P12318 34-217 H167R limits assumed): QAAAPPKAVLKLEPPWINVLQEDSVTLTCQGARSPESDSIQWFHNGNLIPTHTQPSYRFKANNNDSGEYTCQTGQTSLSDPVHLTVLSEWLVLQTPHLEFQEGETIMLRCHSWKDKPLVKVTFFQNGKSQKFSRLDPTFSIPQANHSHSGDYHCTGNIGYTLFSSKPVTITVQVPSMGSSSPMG
Assay [4] concerns the target human FcγRIIIA_158F (CD16a) extracellular domain (human) (UniProt P08637). Described as above.
Assay [5] addresses human FcγRIIb (CD32b) extracellular domain (human) (UniProt P31994). The description is as above.

Sequence of human FcγRIIb (CD32b) extracellular domain (human) (P31994 43-217): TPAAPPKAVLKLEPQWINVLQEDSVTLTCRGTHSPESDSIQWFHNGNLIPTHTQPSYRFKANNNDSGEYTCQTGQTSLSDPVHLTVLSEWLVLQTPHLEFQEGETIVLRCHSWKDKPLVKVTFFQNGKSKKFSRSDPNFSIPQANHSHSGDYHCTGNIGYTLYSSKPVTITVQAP
Sequence of human FcγRIIIA_158F (CD16a) extracellular domain (human) (P08637 17-208): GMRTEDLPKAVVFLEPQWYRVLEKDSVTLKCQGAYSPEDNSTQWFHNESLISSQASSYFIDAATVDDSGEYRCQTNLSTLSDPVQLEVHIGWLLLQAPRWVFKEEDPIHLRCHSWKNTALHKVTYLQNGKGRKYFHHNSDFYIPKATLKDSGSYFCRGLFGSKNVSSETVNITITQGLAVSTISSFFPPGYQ
Sequence of human FcγRI (CD64) extracellular domain (human) (P12314 16-292): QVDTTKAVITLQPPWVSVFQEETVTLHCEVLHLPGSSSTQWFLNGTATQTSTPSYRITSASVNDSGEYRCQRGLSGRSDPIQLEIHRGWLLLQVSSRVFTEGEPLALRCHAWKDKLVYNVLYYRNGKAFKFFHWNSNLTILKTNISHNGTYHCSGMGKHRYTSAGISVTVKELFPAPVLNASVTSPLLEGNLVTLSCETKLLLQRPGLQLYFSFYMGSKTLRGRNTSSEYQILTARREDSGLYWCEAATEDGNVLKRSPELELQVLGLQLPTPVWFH
Sequence of human FcγRIIA_131H (CD32a) extracellular domain (human) (P12318 34-217): as the sequence (P12318 34-217 H167R limits assumed) above, with R134H counted along it

As usually defined, the Kd is the concentration at which binding is half-saturated. For the substance human IgG1 isotype control antibody, the Kd is 0.0479 nM in assay [1]; 570 nM in assay [2]; 570 nM in assay [3]; 820 nM in assay [4]; 2810 nM in assay [5].
